Our source for the molar ratio and stoichiometry N values is PMC4332406.

This assay deals with Human α-defensin 5 (human). Briefly: SPR. A general note: In SPR one partner is held on a chip, and binding of the other changes the refractive index at the surface.

On to Human α-defensin 5 (peptide), for which the molar ratio turned out to be 1 and the stoichiometry N was determined as 2.

As a reminder, the stoichiometry N is the number of molecules, sites or subunits per partner or assembly.
